Target: T1, ErbB4 PY3 motif (Homo sapiens, UniProt Q15303)
T1 chain: KPGTVLPPPPYRHRNTVV

- Kd: ~100 µM
Binder: DSEDELPPGWEERTTKDGWVYYANHTEEKTQWEHPKTGKR [WWOX WW1]

Reference: publication PMC3906126 (2013)
